The values below come from patent US5811533, “High-affinity oligonucleotide ligands to vascular endothelial growth factor (VEGF)” (NeXstar Pharmaceuticals, Inc.).

Where only a bound is given, the exact number is not on record here.

Broadly, the Kd is the free concentration of one partner at which half of the binding sites on the other are occupied at equilibrium, for simple one-to-one binding. Usually Ki stands for the dissociation constant of the complex between target and ligand, obtained from inhibition or displacement.

Series [1] concerns the target T1, VEGF165 (recombinant human vascular endothelial growth factor, 165 aa form) (Homo sapiens, UniProt P15692-4 P15692-4:27-191). Put plainly: filter; Kd1, X1 0.74, Kd2 ~100 nM. The settings on record: tags: gift from N. Ferrara, Genentech; chain copies: 2 (dimer, stated).
Series [2] has as its target T1, VEGF165 (recombinant human vascular …). Put plainly: filter. To be noted: tags: gift from N. Ferrara, Genentech; chain copies: 2 (dimer, stated).
The target is the same in series [3]. Put plainly: filter; clone listed in families 1 and 2. The settings on record: tags: gift from N. Ferrara, Genentech; chain copies: 2 (dimer, stated).
The target of a further series is antithrombin III (UniProt P01008 P01008:33-464). Kind of series: filter; specificity. To be noted: label: 32P. The procedure: (§1) Dissociation constants were determined using the nitrocellulose filter partitioning technique.
A further series has as its target bFGF (UniProt P09038 P09038:143-288). Put plainly: filter; specificity. To be noted: label: 32P. As for the experimental part: as §1
Series [4] addresses T1, VEGF165 (recombinant human vascular …). Put plainly: filter; PBS, 0.01% HSA, 37 C; Kd1, X1 0.73, Kd2 82 nM. The settings on record: tags: gift from N. Ferrara, Genentech; chain copies: 2 (dimer, stated); label: 32P. As for the experimental part: (§2) Internally-labeled RNA ligands used for binding studies were prepared by in vitro transcription using T7 RNA polymerase (Milligan et al. (1987) Nucl. Acids Res. 15:8783) and were purified on denaturing polyacrylamide gels to ensure size homogeneity. All RNA ligands were diluted to about 1 nM in PBS, denatured at 90° C. for 2 minutes, and then cooled on ice prior to incubation with the protein. This denaturation/renaturation cycle performed at high dilution is necessary to ensure that the RNA is essentially free from dimers and other higher order aggregates. Concentrations of the stock solutions of VEGF, from which other dilutions were made, were determined from the absorbance reading at 280 nm using the calculated value for ε280 of 46,600 M^-1cm^-1 for the VEGF dimer (Gill et al. (1989) Anal. Biochem. 182:319). Data sets that define the binding curves were fit to either eq. 2 or eq. 5 by the non-linear least squares method using the software package Kaleidagraph (Synergy Software, Reading, Pa.). […]

The target is the same in series [5]. Kind of series: filter; Kd1, X1 0.77, Kd2 10-100 nM. To be noted: tags: gift from N. Ferrara, Genentech; chain copies: 2 (dimer, stated).
The target is the same in series [6]. Kind of series: FP filter; nitrocellulose filter; Kd1, X1 0.62, Kd2 ~100 nM. To be noted: tags: gift from N. Ferrara, Genentech; chain copies: 2 (dimer, stated).
The target is the same in series [7]. Kind of series: filter; Kd1, X1 0.42, Kd2 ~100 nM. The settings on record: tags: gift from N. Ferrara, Genentech; chain copies: 2 (dimer, stated).
For series [8] the target is unchanged. Put plainly: filter. The settings on record: tags: gift from N. Ferrara, Genentech; chain copies: 2 (dimer, stated). The procedure:
Internally-labeled RNA ligands used for binding studies were prepared by in vitro transcription using T7 RNA polymerase (Milligan et al. (1987) Nucl. Acids Res. 15:8783) and were purified on denaturing polyacrylamide gels to ensure size homogeneity. All RNA ligands were diluted to about 1 nM in PBS, denatured at 90° C. for 2 minutes, and then cooled on ice prior to incubation with the protein. This denaturation/renaturation cycle performed at high dilution is necessary to ensure that the RNA is essentially free from dimers and other higher order aggregates. Concentrations of the stock solutions of VEGF, from which other dilutions were made, were determined from the absorbance reading at 280 nm using the calculated value for ε280 of 46,600 M^-1cm^-1 for the VEGF dimer (Gill et al. (1989) Anal. Biochem. 182:319). Data sets that define the binding curves were fit to either eq. 2 or eq. 5 by the non-linear least squares method using the software package Kaleidagraph (Synergy Software, Reading, Pa.).
(§3) To this end, certain ligands were synthesized and tested for binding affinity. The binding studies were performed using the protocols described in Example 1.
The source holds these as a separate data set.

The target is the same in series [9]. Put plainly: inhibition; VEGF receptor binding. The settings on record: tags: gift from N. Ferrara, Genentech; chain copies: 2 (dimer, stated). As for the experimental part:
VEGF was radioiodinated by the Iodegen method (Jakeman et al. (1992) J. Clin. Invest. 89:244) to a specific activity of 2.4×10^4 cpm/ng. Human umbilical vein endothelial cells (HUVECs) were plated in 24-well plates at a density of 1–2×10^5 cells/well and grown to confluence in EGM (Clonetics, San Diego, Calif.) media (24–48 hrs). At confluence, the cells were washed 3 times with PBS and incubated for 2 hrs at 4° C. in α-MEM serum-free media containing ^125I-labeled VEGF with or without unlabeled competitor (VEGF, EGF, or RNA). For experiments done with RNA, 0.2 units of placental RNase inhibitor (Promega, Madison, Wis.) were included in the media. […] At the end of the 2 hr incubation period, the supernatant was removed and the wells washed 2 times with PBS. HUVECs were then lysed with 1% triton X-100/1M NaOH and the amount of cell-associated ^125I-VEGF determined by gamma counting.
as §3

For series [10] the target is unchanged. Kind of series: filter; PBS, 0.01% HSA, 37 C; Kd1, X1 0.56, Kd2 21 nM. To be noted: tags: gift from N. Ferrara, Genentech; chain copies: 2 (dimer, stated); label: 32P. The procedure:
as §2

Series [11] has the same target. Put plainly: filter; PBS, 0.01% HSA, 37 C; Kd1, X1 0.76, Kd2 182 nM. To be noted: tags: gift from N. Ferrara, Genentech; chain copies: 2 (dimer, stated); label: 32P. The procedure:
as §2

For series [12] the target is unchanged. Kind of series: filter; Kd1, X1 0.50, Kd2 15 nM. The settings on record: tags: gift from N. Ferrara, Genentech; chain copies: 2 (dimer, stated).

T1 sequence (P15692 other isoform, or with tags, fused parts or gaps): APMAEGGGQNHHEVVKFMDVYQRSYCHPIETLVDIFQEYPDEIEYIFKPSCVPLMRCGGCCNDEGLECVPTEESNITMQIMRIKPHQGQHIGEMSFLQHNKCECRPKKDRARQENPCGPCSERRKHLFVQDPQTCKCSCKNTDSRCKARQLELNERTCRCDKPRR
Sequence of bFGF (P09038 143-288, one chain of several): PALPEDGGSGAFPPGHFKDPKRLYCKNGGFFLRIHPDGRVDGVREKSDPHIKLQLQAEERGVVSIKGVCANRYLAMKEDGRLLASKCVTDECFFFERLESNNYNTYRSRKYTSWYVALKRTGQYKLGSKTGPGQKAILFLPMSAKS
Sequence of antithrombin III (P01008 33-464, one chain of several): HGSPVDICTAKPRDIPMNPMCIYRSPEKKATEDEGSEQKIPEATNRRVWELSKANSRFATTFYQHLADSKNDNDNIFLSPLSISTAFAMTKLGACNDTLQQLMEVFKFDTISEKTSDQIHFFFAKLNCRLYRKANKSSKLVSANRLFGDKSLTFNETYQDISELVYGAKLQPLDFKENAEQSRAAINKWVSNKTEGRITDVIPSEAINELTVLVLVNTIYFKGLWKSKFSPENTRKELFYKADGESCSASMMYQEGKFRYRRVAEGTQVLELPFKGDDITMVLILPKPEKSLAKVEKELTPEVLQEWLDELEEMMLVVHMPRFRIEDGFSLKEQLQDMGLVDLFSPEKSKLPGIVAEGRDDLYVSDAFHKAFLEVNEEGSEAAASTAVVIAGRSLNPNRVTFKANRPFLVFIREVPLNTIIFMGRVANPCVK

B1: 26B (ssRNA)
RNA: GGGAGGACGAUGCGGCACCUUCGUGGGGUCAAGGAGGGUCGCGAGGCCGCAGGAUCAACCGUGUGCAGACGACUCGCCCGA
modifications: 2'-NH2 pyrimidines
For B1, in [1], the Kd was 0.37 nM.

B2: ssDNA b60 (ssDNA)
DNA: CTACCTACGATCTGACTAGCCCACCGCAGAGTGTTACACCCCATAGGAGAAGTCCGGATGGCTTAGCTTACTCTCATGTAGTTCCT
As to B2, the Kd in [2] amounted to 26 nM.

B3: ssDNA b99 (ssDNA)
DNA: CTACCTACGATCTGACTAGCCACGATAATCCTCCGAAAGCGTTGTCCGAATGGGTCGTTAGCTTAGCTTACTCTCATGTAGTTCCT
Regarding B3, in series [2], the Kd was determined as 34 nM. Take GCAAGGGGTCCTGCCGAATGGGGGAATACGCTAGCCGAAA (ssDNA) [88t]: in series [2], the equilibrium dissociation constant (Kd) came to 19 nM.

B4: ssDNA b81 (ssDNA)
DNA: CTACCTACGATCTGACTAGCCCGAATGGGGCTGCGACTGCAGTGGACGTCACGTCGTTAGCTTACTCTCATGTAGTTCCT
For B4, the Kd in series [3] was determined as 0.3 nM. Turning to GGAAGCUUGAUGGGUGACACACGUCAUGCCGAGCU (ssRNA) [ligand 44t], the dissociation constant Kd stood at 12000 nM in the series with antithrombin III, 600 nM in the series with bFGF and 0.48 nM in series [4].

B5: 30B (ssRNA)
RNA: GGGAGGACGAUGCGGCAUGGUUGUGAACUGUUGUGAUCAAUGCGGGGAGGGUAAUGGUGGGUGGUCAGACGACUCGCCCGA
modifications: 2'-NH2 pyrimidines
Regarding B5, the equilibrium dissociation constant (Kd) in [5] stood at 0.034 nM.

B6: ssDNA b80 (ssDNA)
DNA: CTACCTACGATCTGACTAGCCCGTCGCGTGACTATAACCACACGCAGACTAGAGTGCAGGGCTTAGCTTACTCTCATGTAGTTCCT
For the molecule B6, in series [2], the Kd worked out at 8.1 nM.

B7: 17B (ssRNA)
RNA: GGGAGGACGAUGCGGCGCUGUGUUCAAUGCGGGGAUCGGGCCGGAGGAUGAACAAAUGGCGGGUCAGACGACUCGCCCGA
modifications: 2'-NH2 pyrimidines
As to B7, the dissociation constant Kd in [6] worked out at 0.028 nM.

B8: ssDNA 1 (ssDNA)
DNA: ATCCGCCTGATTAGCGATACTTCTGCGAGAGACCTACTGGAACGTTTTGTGATATTCACAACTTGAGCAAAATCACCTGCAGGGG
For B8, the Kd in series [2] was found to be 12 nM.

B9: ssDNA b85 (ssDNA)
DNA: CTACCTACGATCTGACTAGCGAGGAGGTGCGTTGTCCGAAGGGGTCGTTAGTCACCTCGTGCTTAGCTTACTCTCATGTAGTTCCT
As for B9, the Kd in series [2] stood at 0.15 nM.

B10: 14A (ssRNA)
RNA: GGGAGACAAGAAUAACGCUCAAGCAACAGAGGCUGAUGGUAGACGCCGGCCAUUCGACAGGAGGCUCACAACAGGC
modifications: 2'-NH2 pyrimidines
In the case of B10, the Kd in series [7] came to 0.7 nM. On to ACCCUGAUGGUAGACGCCGGGGUG (ssRNA, modified variant of NX-107 (position code lost in text)) [NX-176], for which, in series [8], the dissociation constant (Kd) was determined as 65 nM. In addition, the Ki in series [9] worked out at 10 nM.

B11: ssDNA b59 (ssDNA)
DNA: CTACCTACGATCTGACTAGCAACACGAGCATGTGGGGTCCCTTCCGAATGGGGGGTACAGGCTTAGCTTACTCTCATGTAGTTCCT
Consider B11, for which, in [2], the Kd worked out at 91 nM.

B12: ssDNA b98 (ssDNA)
DNA: CTACCTACGATCTGACTAGCGATCCACGAAGAAGCTTACTCTCATGTAGTTCCAGCTTACTCTCATGTAGTTCCT
B12: the Kd in [2] was above 100 nM.

B13: ligand 12 (ssRNA)
RNA: GGGAGCUCAGAAUAAACGCUCAAGCAGACGAAGGGAACCUGCGUCUCGGCACCUUCGACAUGAGGCCCGGAUCCGGC
With B13, in series [10], the Kd amounted to 0.48 nM.

B14: ssDNA b88 (ssDNA)
DNA: CTACCTACGATCTGACTAGCGCAAGGGGTCCTGCCGAATGGGGGAATACGCTAGCCGAAAGCTTACTCTCATGTAGTTCCT
Regarding B14, the Kd in series [2] is 34 nM.

On to GGCCGGUAGUCGCAUGGCCCAUCGCGCCCGG (ssRNA) [ligand 100t], for which the Kd was 3000 nM with antithrombin III, 1000 nM in the series with bFGF and 0.42 nM in [11].

B15: 32B (ssRNA)
RNA: GGGAGGACGAUGCGGCAACAUUGGCACCAAUGCUCUGUGUUAAUGUGGGGUGGGAACGGCGCCGCAGACGACUCGCCCGA
modifications: 2'-NH2 pyrimidines
Turning to B15, in series [12], the Kd was determined as 0.05 nM.

B16: NX-214 (mixed)
mixed: TTTTACCCUGAUGGUAGACGCCGGGGUGTTTTT
modifications: 2'-NH2/2'-OMe variant (position code lost in text); 5' and 3' phosphorothioate thymidine caps
Consider B16, for which the equilibrium dissociation constant (Kd) in series [8] stood at 0.2 nM. For the same molecule, in [9], the Ki was 1 nM.

B17: NX-213 (mixed)
mixed: TTTTACCCUGAUGGUAGACGCCGGGGUGTTTTT
modifications: 2'-NH2 pyrimidines; all purines 2'-OMe except four; 5' and 3' phosphorothioate thymidine caps
With B17, the Kd in [8] is 0.2 nM. The Ki in [9] was determined as 1 nM.

B18: NX-178 (mixed)
mixed: TTTTACCCUGAUGGUAGACGCCGGGGUGTTTTT
modifications: 2'-NH2 pyrimidines; 5' T*T*T*T* and 3' T*T*T*T*T phosphorothioate thymidine caps
For B18, the dissociation constant (Kd) in [8] is 0.7 nM. In [9], the Ki stood at 1 nM. Taken in the same sequence, the figures for TTTTACCCUGAUGGUAGACGCCGGGGUGTTTTT (mixed, as NX-213 plus internal phosphorothioate between A7 and U8) [NX-215] were 0.2 nM and 1 nM.

TTTTACCCUGAUGGUAGACGCCGGGGUGTTTTT (mixed, all 2'-OMe core; 5' and 3' phosphorothioate thymidine caps) [NX-191]: the dissociation constant (Kd) in [8] is 120 nM. The Ki in series [9] turned out to be 500 nM.
